Data on one substance can be found in article PMC5131608.

This test deals with Tt1219^33-236 (T. thermophilus HB8). Description: SEC; size exclusion chromatography of Tt1219^33-236 alone (Supplementary Fig. 1).

Tt1219^33-236 (domain or fragment): the stoichiometry N (in general, a count of units in the complex or per binding partner) was determined as 2.
